Measured values as given in IntAct's records for PubMed 16306228.

B1: Serine/threonine-protein kinase SIK1 (Homo sapiens), P57059 (parent)
chain: MVIMSEFSADPAGQGQGQQKPLRVGFYDIERTLGKGNFAVVKLARHRVTKTQVAIKIIDKTRLDSSNLEKIYREVQLMKLLNHPHIIKLYQVMETKDMLYIVTEFAKNGEMFDYLTSNGHLSENEARKKFWQILSAVEYCHDHHIVHRDLKTENLLLDGNMDIKLADFGFGNFYKSGEPLSTWCGSPPYAAPEVFEGKEYEGPQLDIWSLGVVLYVLVCGSLPFDGPNLPTLRQRVLEGRFRIPFFMSQDCESLIRRMLVVDPARRITIAQIRQHRWMRAEPCLPGPACPAFSAHSYTSNLGDYDEQALGIMQTLGVDRQRTVESLQNSSYNHFAAIYYLLLERLKEYRNAQCARPGPARQPRPRSSDLSGLEVPQEGLSTDPFRPALLCPQPQTLVQSVLQAEMDCELQSSLQWPLFFPVDASCSGVFRPRPVSPSSLLDTAISEEARQGPGLEEEQDTQESLPSSTGRRHTLAEVSTRLSPLTAPCIVVSPSTTASPAEGTSSDSCLTFSASKSPAGLSGTPATQGLLGACSPVRLASPFLGSQSATPVLQAQGGLGGAVLLPVSFQEGRRASDTSLTQGLKAFRQQLRKTTRTKGFLGLNKIKGLARQVCQAPASRASRGGLSPFHAPAQSPGLHGGAAGSREGWSLLEEVLEQQRLLQLQHHPAAAPGCSQAPQPAPAPFVIAPCDGPGAAPLPSTLLTSGLPLLPPPLLQTGASPVASAAQLLDTHLHIGTGPTALPAVPPPRLARLAPGCEPLGLLQGDCEMEDLMPCSLGTFVLVQ
B2: Serine/threonine-protein kinase SIK3 (Homo sapiens), Q9Y2K2 (parent)
chain: MAAAAASGAGGAAGAGTGGAGPAGRLLPPPAPGSPAAPAAVSPAAGQPRPPAPASRGPMPARIGYYEIDRTIGKGNFAVVKRATHLVTKAKVAIKIIDKTQLDEENLKKIFREVQIMKMLCHPHIIRLYQVMETERMIYLVTEYASGGEIFDHLVAHGRMAEKEARRKFKQIVTAVYFCHCRNIVHRDLKAENLLLDANLNIKIADFGFSNLFTPGQLLKTWCGSPPYAAPELFEGKEYDGPKVDIWSLGVVLYVLVCGALPFDGSTLQNLRARVLSGKFRIPFFMSTECEHLIRHMLVLDPNKRLSMEQICKHKWMKLGDADPNFDRLIAECQQLKEERQVDPLNEDVLLAMEDMGLDKEQTLQSLRSDAYDHYSAIYSLLCDRHKRHKTLRLGALPSMPRALAFQAPVNIQAEQAGTAMNISVPQVQLINPENQIVEPDGTLNLDSDEGEEPSPEALVRYLSMRRHTVGVADPRTEVMEDLQKLLPGFPGVNPQAPFLQVAPNVNFMHNLLPMQNLQPTGQLEYKEQSLLQPPTLQLLNGMGPLGRRASDGGANIQLHAQQLLKRPRGPSPLVTMTPAVPAVTPVDEESSDGEPDQEAVQSSTYKDSNTLHLPTERFSPVRRFSDGAASIQAFKAHLEKMGNNSSIKQLQQECEQLQKMYGGQIDERTLEKTQQQHMLYQQEQHHQILQQQIQDSICPPQPSPPLQAACENQPALLTHQLQRLRIQPSSPPPNHPNNHLFRQPSNSPPPMSSAMIQPHGAASSSQFQGLPSRSAIFQQQPENCSSPPNVALTCLGMQQPAQSQQVTIQVQEPVDMLSNMPGTAAGSSGRGISISPSAGQMQMQHRTNLMATLSYGHRPLSKQLSADSAEAHSLNVNRFSPANYDQAHLHPHLFSDQSRGSPSSYSPSTGVGFSPTQALKVPPLDQFPTFPPSAHQQPPHYTTSALQQALLSPTPPDYTRHQQVPHILQGLLSPRHSLTGHSDIRLPPTEFAQLIKRQQQQRQQQQQQQQQQEYQELFRHMNQGDAGSLAPSLGGQSMTERQALSYQNADSYHHHTSPQHLLQIRAQECVSQASSPTPPHGYAHQPALMHSESMEEDCSCEGAKDGFQDSKSSSTLTKGCHDSPLLLSTGGPGDPESLLGTVSHAQELGIHPYGHQPTAAFSKNKVPSREPVIGNCMDRSSPGQAVELPDHNGLGYPARPSVHEHHRPRALQRHHTIQNSDDAYVQLDNLPGMSLVAGKALSSARMSDAVLSQSSLMGSQQFQDGENEECGASLGGHEHPDLSDGSQHLNSSCYPSTCITDILLSYKHPEVSFSMEQAGV

Variants of: B1
Details: with 1433z_human YWHAZ

Variant	effect of a mutation on the interaction
T182A	decreasing interaction

Variants of: B2
Details: with 1433z_human YWHAZ

Variant	effect of a mutation on the interaction
T221A	decreasing interaction
